Measurements reported in US20200181259A1.

Target: mouse CD47-Fc (mouse) (UniProt Q61735)
Test: bio-light interferometry (ForteBio), antibody on AHQ tip, mouse CD47-Fc 100 nM in solution, bivalent

Chain of mouse CD47-Fc (mouse) (Q61735 19-140 limits assumed): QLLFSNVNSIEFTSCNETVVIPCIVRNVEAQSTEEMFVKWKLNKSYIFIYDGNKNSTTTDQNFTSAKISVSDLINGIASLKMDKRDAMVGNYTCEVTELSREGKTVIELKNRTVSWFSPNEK
Chain of Hu5F9, control anti-CD47 antibody transiently expressed in 293 HEK cells (VH): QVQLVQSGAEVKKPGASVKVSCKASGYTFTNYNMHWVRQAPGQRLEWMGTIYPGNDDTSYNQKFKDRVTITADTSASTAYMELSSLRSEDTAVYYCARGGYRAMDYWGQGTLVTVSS
Chain of Hu5F9, control anti-CD47 antibody transiently expressed in 293 HEK cells (VL): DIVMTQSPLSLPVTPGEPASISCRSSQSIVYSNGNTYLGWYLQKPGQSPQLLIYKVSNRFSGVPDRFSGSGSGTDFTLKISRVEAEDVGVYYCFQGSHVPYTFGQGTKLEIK

Kd: 12.7 nM
Substance: Hu5F9, control anti-CD47 antibody transiently expressed in 293 HEK cells
